Data taken from paper PMC8968458.

Target: NF-κB protein p65 (endogenous) (human (endogenous in PC-3)), Q04206
Test: immuno-depletion
Settings: remark: other sources report otherwise

Chain of NF-κB protein p65 (endogenous) (human (endogenous in PC-3)), Q04206 (Q04206 whole entry): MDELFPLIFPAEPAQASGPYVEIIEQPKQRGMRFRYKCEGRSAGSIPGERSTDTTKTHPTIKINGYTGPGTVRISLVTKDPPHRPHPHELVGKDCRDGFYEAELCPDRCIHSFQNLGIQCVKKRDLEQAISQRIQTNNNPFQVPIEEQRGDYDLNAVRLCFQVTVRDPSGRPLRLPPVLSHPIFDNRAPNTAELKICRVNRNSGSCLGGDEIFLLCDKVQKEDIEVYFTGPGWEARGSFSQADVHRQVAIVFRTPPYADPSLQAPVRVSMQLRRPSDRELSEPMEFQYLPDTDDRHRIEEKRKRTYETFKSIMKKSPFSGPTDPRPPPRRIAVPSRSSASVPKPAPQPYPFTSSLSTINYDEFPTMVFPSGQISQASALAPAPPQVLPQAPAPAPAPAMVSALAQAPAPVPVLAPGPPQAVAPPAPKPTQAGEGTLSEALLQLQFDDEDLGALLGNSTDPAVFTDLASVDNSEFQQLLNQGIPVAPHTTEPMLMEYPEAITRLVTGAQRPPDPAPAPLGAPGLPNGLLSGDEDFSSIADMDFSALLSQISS

- percent of IκBα bound to p65: 63%
B1: IκBα (endogenous), P25963 1-317 (natural protein)
chain: MFQAAERPQEWAMEGPRDGLKKERLLDDRHDSGLDSMKDEEYEQMVKELQEIRLEPQEVPRGSEPWKQQLTEDGDSFLHLAIIHEEKALTMEVIRQVKGDLAFLNFQNNLQQTPLHLAVITNQPEIAEALLGAGCDPELRDFRGNTPLHLACEQGCLASVGVLTQSCTTPHLHSILKATNYNGHTCLHLASIHGYLGIVELLVSLGADVNAQEPCNGRTALHLAVDLQNPDLVSLLLKCGADVNRVTYQGYSPYQLTWGRPSTRIQQQLGQLTLENLQMLPESEDEESYDTESEFTEFTEDELPYDDCVFGGQRLTL
